Source: US20130217572A1, “SPECIFIC DELIVERY OF AGROCHEMICALS” (VRIJE UNIVERSITEIT BRUSSEL, priority 2010, published 2013)

T1: potato lectin (Sigma) (potato, UniProt Q9S8M0 23-323)
T1 construct: Bought glycoprotein, coated on ELISA plates
T1 sequence (looked up): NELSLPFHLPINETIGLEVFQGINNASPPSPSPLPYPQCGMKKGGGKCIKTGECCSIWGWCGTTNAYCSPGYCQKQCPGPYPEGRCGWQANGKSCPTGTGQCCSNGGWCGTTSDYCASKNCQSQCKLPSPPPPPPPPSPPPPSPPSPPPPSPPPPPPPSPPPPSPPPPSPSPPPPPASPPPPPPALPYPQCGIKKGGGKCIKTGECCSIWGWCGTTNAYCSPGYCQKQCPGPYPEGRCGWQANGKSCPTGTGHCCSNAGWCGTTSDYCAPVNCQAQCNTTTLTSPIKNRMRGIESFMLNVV

T2: potato lectin (Solanum tuberosum, UniProt Q9S8M0)
T2 sequence (Q9S8M0 23-323): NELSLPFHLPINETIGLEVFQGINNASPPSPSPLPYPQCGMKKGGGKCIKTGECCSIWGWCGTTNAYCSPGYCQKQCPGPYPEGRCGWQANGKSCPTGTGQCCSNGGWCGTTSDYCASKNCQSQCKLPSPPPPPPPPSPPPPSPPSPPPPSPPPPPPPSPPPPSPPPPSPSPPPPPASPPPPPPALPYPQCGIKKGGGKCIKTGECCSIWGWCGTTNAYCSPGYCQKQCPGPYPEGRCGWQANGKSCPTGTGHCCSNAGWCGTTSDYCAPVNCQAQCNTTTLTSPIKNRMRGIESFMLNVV


Tests used:
[1] = target: T1, potato lectin (Sigma); experiment: microcapsule retention; H: amine capsules, BS3 one-step, 0.1 ug VHH/cm2; potato lectin coat 100 ug/ml; 10% coverage
[2] = target: T1, potato lectin (Sigma); experiment: microcapsule retention; D: carboxyl capsules, EDC/Sulfo-NHS, 0.1 ug VHH/cm2; potato lectin coat 10 ug/ml; 10% coverage
[3] = target: T1, potato lectin (Sigma); experiment: microcapsule retention; C: carboxyl capsules, EDC/Sulfo-NHS, 1 ug VHH/cm2; potato lectin coat 1 ug/ml; 100% coverage
[4] = target: T1, potato lectin (Sigma); experiment: microcapsule retention; D: carboxyl capsules, EDC/Sulfo-NHS, 0.1 ug VHH/cm2; potato lectin coat 100 ug/ml; 10% coverage
[5] = target: T1, potato lectin (Sigma); experiment: microcapsule retention; C: carboxyl capsules, EDC/Sulfo-NHS, 1 ug VHH/cm2; potato lectin coat 10 ug/ml; 10% coverage
[6] = target: T1, potato lectin (Sigma); experiment: microcapsule retention; G: amine capsules, BS3 one-step, 1 ug VHH/cm2; potato lectin coat 100 ug/ml; 100% coverage
[7] = target: T1, potato lectin (Sigma); experiment: microcapsule retention; K: amine capsules, BS3 two-step, 1 ug VHH/cm2; potato lectin coat 10 ug/ml; 100% coverage
[8] = target: T2, potato lectin; experiment: VHH binding to potato lectin in ELISA; conditions: blank wells; VHH 3 μg/ml
Protocol: ELISA plates (Maxisorp, Nunc) coated with 100 μl per well 100 μg/ml potato lectin (Sigma) in PBS were coated at 4° C. overnight and coating was continued at room temperature for 1 hour on the next day. Plates were washed three times with PBS/0.05%-TWEEN®-20 and blocked with 5% skimmed milk in PBS for 1 hour. VHH (3 μg/ml) were transferred to the potato lectin-coated plates and VHH antibody fragments were allowed to bind for 1 hour at room temperature. Bound VHH were detected with sequential incubations with monoclonal mouse anti-histidine antibodies (Abd Serotec) and rabbit anti-mouse IgG whole molecule antibodies conjugated with alkaline phosphatase (RaM/AP) (Sigma) in 1% MPBS/0.05%-TWEEN®-20. Unbound antibodies were removed by washing three times with PBS/0.05%-TWEEN®-20 after each antibody incubation. The plates were washed an additional two times with PBS and 100 μl pNPP disodium hexahydrate substrate (Sigma) was added to each well and the absorbance at 405 nm was measured (see Table 2).

[9] = system: grass leaf surface; experiment: VHH binding to leaf discs (microscopy); conditions: 5 μg/ml in PBS, anti-histidine Alexa-488 detection
Protocol: (§1) VHH binding to non-fixed leaf discs of potato (variety Désirée), black nightshade, grass, wheat or azalea was investigated. For comparison, binding of CBM3a to non-fixed leaf discs of potato (variety Désirée) was analyzed in parallel. Leaf discs were prepared by punching a fresh potato leaf with a 5 mm belt hole puncher tool. Leaf discs were put immediately in wells of a 96-well plate containing 200 μl per well 5% MPBS or PBS, and incubated for 30 minutes. Leaf discs were transferred to solutions containing 5 μg/ml VHH antibody fragment, respectively 5 μg/ml CBM3a in 2% MPBS or PBS and incubated for 60-90 minutes. Unbound VHH or CBM3a proteins were removed by washing three times with 2% MPBS or PBS. Bound VHH or CBM3a proteins were detected with incubation with monoclonal mouse anti-histidine antibodies directly conjugated with Alexa-488 fluorescent dye (Abd Serotec) in 1% MPBS for 1 hour. Unbound antibodies were removed by washing three times with PBS. Leaf discs were put on glass slides, covered with cover slips, and analyzed by microscopy or on a macrozoom microscope system (Nikon) or a SP5 confocal microscope system (Leica).

[10] = system: black nightshade leaf surface; experiment: VHH binding to leaf discs (microscopy); conditions: 5 μg/ml in PBS, anti-histidine Alexa-488 detection
Protocol: as §1

[11] = system: potato leaf discs; experiment: VHH binding at different temperatures; set-up: species or system potato (variety Désirée); conditions: 5 μg/ml in PBS; temperature range from 4° C. to 55° C.
Protocol: In order to test applicability of VHH as binders for greenhouse or field applications where binding supposedly may occur at different and sometimes even extreme temperatures, a leaf dip VHH binding experiment at different temperatures was used. Temperatures used were 4° C., room temperature, 37° C., 55° C., or 70° C. ø 8 mm potato leaf discs (variety Désirée) were cut using a puncher tool. The leaf discs were equilibrated to different temperatures by washing three times with PBS at different temperatures. Hexahistidine-tagged VHH were diluted to 5 μg/ml in PBS at different temperatures, added to the corresponding equilibrated leaf discs, and binding of VHH was allowed for 1 hour at different temperatures. After incubation with VHH, leaf discs were washed five times with PBS at room temperature. Bound VHH were detected by incubation with monoclonal mouse anti-histidine antibodies directly conjugated with Alexa-488 fluorescent dye (Abd Serotec) in PBS for 1 hour at room temperature. Unbound anti-histidine antibodies were removed by washing five times with PBS at room temperature. Leaf discs were analyzed for bound VHH with microscopy. […] Please note that leaf discs severely suffer when submerged in PBS at 70° C. for 1 hour but that binding of VHH was still detected.

[12] = system: gum arabic or potato lectin; experiment: Lambda cyhalothrin amounts in wells with bound microcapsules (GC/MS-MS); assay type: binding; conditions: VHH coupled to lambda cyhalothrin microcapsules
Protocol: In another experiment lambda cyhalothrin amounts were also determined analytically. 100 μl/well aceton was added to washed wells with bound microcapsules and transferred to glass vials with 10 ml of hexane containing 0.05% triphenylphosphate as internal standard. The amount of lambda cyhalothrin was determined by GC/MS-MS analysis in comparison with calibration solutions. Controls for lambda cyhalothrin microcapsules included blank microcapsules to which no VHH were coupled and microcapsules to which unrelated VHH were coupled. Controls also included wells to which no gum arabic or potato lectin was coated.

Row | Molecule | microcapsule counts (microcapsules) [1] | microcapsule counts (microcapsules) [2] | microcapsule counts (microcapsules) [3] | microcapsule counts (microcapsules) [4] | microcapsule counts (microcapsules) [5] | microcapsule counts (microcapsules) [6] | microcapsule counts (microcapsules) [7] | absorbance at 405 nm [8] | binding to native grass leaf surface [9] | binding to native grass leaf surface ([9]; listed as 3E6) | binding to native black nightshade leaf surface [10] | binding to native black nightshade leaf surface ([10]; listed as 3E6) | binding to leaf discs at different temperatures [11] | increase of amounts of lambda cyhalothrin in wells coated with antigen ([12]; compared to blank microcapsules) | increase of amounts of lambda cyhalothrin in wells coated with antigen ([12]; over blank wells not coated with antigen)
1 | Control VHH | 225 | 118 | 193 | 125 | 50 | 150 | 903 | – | – | – | – | – | – | – | –
2 | VHH 3E6 (VHH, also called Monovalent VHH 3E6) VHH: QVQLQESGGGLVQPGGTLSLSCAASGFNVRWYGMGWFRQAPGKEREGVACISALQETTAYADSVKGRFTLSRDNPKNTLSLQMNNLQPEDTGVYYCATTDCDDSSRMTYTSYLGQGTQVTVSS | – | – | – | – | – | – | – | 0.067 | binding to leaf surface and wounded plant tissue | bind specifically | binding leaf surface, glandular trichomes, and leaf hairs | bind specifically | showed detectable binding | 23 fold | 27 fold
